The test addresses T1, rara_human RARA (UniProt P10276).
T1 sequence: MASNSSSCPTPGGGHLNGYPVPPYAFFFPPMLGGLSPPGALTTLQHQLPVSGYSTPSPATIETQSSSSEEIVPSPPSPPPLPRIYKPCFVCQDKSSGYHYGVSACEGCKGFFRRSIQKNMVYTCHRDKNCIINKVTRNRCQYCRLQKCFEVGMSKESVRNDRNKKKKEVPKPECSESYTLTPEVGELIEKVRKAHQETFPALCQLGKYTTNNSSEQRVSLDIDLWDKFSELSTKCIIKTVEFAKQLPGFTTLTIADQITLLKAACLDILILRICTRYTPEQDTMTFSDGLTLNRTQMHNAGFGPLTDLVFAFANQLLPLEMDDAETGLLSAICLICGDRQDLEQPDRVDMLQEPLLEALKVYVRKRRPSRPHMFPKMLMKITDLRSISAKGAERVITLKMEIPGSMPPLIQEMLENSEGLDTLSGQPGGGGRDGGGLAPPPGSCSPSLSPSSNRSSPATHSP

Turning to “LIM domain-containing protein ajuba (Mus musculus) (from UniProt Q91XC0) L292A;L293A;L295A;L418A;I419A;L420A;I488A;V489A;V491A”, the “effect of a mutation on the interaction” value is listed as “disrupting interaction strength”.

These data come from IntAct's records for PubMed 20133701.
